The results in this text go back to patent US20130230504A1 (CHILDREN S MEDICAL CENTER, published 2013).

Test [1] has as its target VEGF165 receptor (VEGF165R) (human) (UniProt O14786). In words: competition with 125I-VEGF165 (5 ng/ml) on HUVEC at 2 ug/ml GST-Ex 7, gamma counting.
Test [2] shares this target. Put plainly: competition with 125I-VEGF165 (5 ng/ml) on HUVEC (KDR/Flk-1 and VEGF165R), increasing GST-Ex 7+8, gamma counting.
Test [3] shares this target. In words: competition with 125I-VEGF165 (5 ng/ml) on MDA-MB-231 cells (VEGF165R only), increasing GST-Ex 7+8, gamma counting.
Test [4] addresses KDR/Flk-1 (human, UniProt P35968 20-1356). Put plainly: cell-based or functional assay.

Chain of VEGF165 receptor (VEGF165R) (human) (O14786 22-923): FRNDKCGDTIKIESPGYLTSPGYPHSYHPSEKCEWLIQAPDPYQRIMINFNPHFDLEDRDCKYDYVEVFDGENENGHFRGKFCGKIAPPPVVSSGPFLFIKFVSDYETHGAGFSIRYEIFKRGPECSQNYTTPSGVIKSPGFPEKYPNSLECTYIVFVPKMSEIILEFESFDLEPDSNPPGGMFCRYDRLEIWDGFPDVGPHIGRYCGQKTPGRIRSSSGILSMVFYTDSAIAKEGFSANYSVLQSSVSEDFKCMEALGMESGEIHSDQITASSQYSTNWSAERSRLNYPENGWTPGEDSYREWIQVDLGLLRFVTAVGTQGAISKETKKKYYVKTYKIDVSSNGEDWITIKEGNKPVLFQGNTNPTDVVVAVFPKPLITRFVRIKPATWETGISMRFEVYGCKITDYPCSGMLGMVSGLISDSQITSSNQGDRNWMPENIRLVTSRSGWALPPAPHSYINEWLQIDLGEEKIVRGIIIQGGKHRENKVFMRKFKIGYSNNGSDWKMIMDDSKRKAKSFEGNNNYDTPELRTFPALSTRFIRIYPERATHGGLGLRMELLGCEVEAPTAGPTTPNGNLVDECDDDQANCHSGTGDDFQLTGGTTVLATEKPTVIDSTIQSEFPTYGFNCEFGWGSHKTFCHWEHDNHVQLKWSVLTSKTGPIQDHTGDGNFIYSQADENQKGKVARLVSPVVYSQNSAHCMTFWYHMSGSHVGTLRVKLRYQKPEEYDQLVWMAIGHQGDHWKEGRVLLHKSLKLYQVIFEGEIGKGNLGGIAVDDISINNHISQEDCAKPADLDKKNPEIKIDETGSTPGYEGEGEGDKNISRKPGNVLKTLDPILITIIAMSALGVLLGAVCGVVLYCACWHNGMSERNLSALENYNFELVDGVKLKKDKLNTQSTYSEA
Chain of KDR/Flk-1 (P35968 20-1356): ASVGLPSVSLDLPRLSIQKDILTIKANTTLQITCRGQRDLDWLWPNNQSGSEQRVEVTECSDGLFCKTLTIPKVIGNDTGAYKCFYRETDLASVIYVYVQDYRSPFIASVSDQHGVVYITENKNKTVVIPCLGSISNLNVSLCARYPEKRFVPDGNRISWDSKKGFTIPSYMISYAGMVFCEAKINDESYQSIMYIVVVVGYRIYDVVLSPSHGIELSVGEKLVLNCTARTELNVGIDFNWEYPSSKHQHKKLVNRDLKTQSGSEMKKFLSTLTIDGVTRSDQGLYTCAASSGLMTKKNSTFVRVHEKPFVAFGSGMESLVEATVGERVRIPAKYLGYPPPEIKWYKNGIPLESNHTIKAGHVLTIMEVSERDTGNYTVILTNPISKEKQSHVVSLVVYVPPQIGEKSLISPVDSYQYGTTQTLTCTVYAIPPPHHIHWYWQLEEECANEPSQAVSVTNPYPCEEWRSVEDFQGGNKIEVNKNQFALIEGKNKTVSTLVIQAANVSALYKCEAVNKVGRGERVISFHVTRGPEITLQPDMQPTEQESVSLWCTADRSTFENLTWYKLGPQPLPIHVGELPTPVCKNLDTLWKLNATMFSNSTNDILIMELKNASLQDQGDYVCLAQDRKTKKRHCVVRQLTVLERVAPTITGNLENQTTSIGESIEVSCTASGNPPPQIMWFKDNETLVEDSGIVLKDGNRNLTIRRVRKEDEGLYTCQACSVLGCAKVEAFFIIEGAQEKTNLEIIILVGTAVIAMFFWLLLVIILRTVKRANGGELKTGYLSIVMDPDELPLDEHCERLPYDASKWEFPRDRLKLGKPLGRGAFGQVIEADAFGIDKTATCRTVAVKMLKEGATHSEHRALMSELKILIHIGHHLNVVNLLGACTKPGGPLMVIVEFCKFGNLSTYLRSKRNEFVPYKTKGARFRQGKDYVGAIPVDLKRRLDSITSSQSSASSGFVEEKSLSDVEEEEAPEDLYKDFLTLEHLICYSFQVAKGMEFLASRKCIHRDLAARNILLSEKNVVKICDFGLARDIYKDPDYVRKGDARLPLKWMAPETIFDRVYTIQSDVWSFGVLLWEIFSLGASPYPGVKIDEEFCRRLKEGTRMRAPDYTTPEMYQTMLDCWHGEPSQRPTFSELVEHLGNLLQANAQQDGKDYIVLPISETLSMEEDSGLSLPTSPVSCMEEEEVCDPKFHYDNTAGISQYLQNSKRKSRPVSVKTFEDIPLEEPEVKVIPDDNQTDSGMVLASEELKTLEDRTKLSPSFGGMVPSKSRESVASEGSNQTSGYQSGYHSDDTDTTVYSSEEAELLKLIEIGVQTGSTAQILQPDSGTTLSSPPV

In test [1], “GST-Ex 7 fusion protein (GST fused to the 44 amino acids encoded by VEGF exon 7 plus the first cysteine of exon 8) (from UniProt P08515 1-218)” showed a percent inhibition of 125I-VEGF165 binding of 80%. As for “GST-Ex 7+8 fusion protein (GST fused to the VEGF165 exons 7- and 8-encoded peptide) (from UniProt P15692 187-191)”, the percent inhibition of 125I-VEGF165 binding was in the range of 85 to 95% in test [2] and 97 to 98% in test [3].

B1: Human recombinant VEGF121 (ligand, UniProt P15692-9 27-147, looked up)
chain: APMAEGGGQNHHEVVKFMDVYQRSYCHPIETLVDIFQEYPDEIEYIFKPSCVPLMRCGGCCNDEGLECVPTEESNITMQIMRIKPHQGQHIGEMSFLQHNKCECRPKKDRARQEKCDKPRR
modifications: radioiodinated (125I, IODO-BEADS) in the cross-linking assays
Regarding B1, the “fold decrease in VEGF121-mediated HUVEC proliferation with 15 ug/ml GST-Ex 7+8” value in test [4] was about 2 fold.
